Results reported in patent CN115057938A (dated 2022).

Target: T1, Delta变异株SARS-COV-2 RBD蛋白(Ag101) (SARS-COV-2 Delta变异株, UniProt P0DTC2 319-541)
T1 construct: domain: RBD; also called Delta variant SARS-COV-2 RBD protein
Assay: competition ELISA: Delta RBD coated, blocks ACE2 binding

Binder	IC50 [pM]
R1463 (VHH, also called RX017 VHH-His标签; 对照) VHH: QVQLVESGGGVVQPGGSLRLSCTCSRCTFNWDGMGWFRQAPGKGLEFVATISWSGQEPAYADSVKGRFTISRDNSKNTLYLQMTSLRAEDTAVYYCAAAQYTGASYSILRDQVGYDYWGQGTLVTVSS	18.1
R1475 (VHH, not shown: small tags and cut ends, also called 人源化多价结合蛋白 R1475; VHH-Linker-VHH-His标签) VHH 1: QVQLVESGGGVVQPGGSLRLSCTCSRCTFNWDGMGWFRQAPGKGLEFVATISWSGQEPAYADSVKGRFTISRDNSKNTLYLQMTSLRAEDTAVYYCAAAQYTGASYSILRDQVGYDYWGQGTLVTVSS VHH 2: QVQLVESGGGVVQPGGSLRLSCTCSRCTFNWDGMGWFRQAPGKGLEFVATISWSGQEPAYADSVKGRFTISRDNSKNTLYLQMTSLRAEDTAVYYCAAAQYTGASYSILRDQVGYDYWGQGTLVTVSS	3.34
R1464 (VHH, not shown: small tags and cut ends, also called 人源化多价结合蛋白 R1464; His标签-VHH-Linker-VHH-Linker-VHH) chain (part 1 of 3): HHHHHHQVQLVESGGGVVQPGGSLRLSCTCSRCTFNWDGMGWFRQAPGKGLEFVATISWSGQEPAYADSVKGRFTISRDNSKNTLYLQMTSLRAEDTAVYYCAAAQYTGASYSILRDQVGYDYWGQGTLVTVSS chain (part 2 of 3): QVQLVESGGGVVQPGGSLRLSCTCSRCTFNWDGMGWFRQAPGKGLEFVATISWSGQEPAYADSVKGRFTISRDNSKNTLYLQMTSLRAEDTAVYYCAAAQYTGASYSILRDQVGYDYWGQGTLVTVSS chain (part 3 of 3): QVQLVESGGGVVQPGGSLRLSCTCSRCTFNWDGMGWFRQAPGKGLEFVATISWSGQEPAYADSVKGRFTISRDNSKNTLYLQMTSLRAEDTAVYYCAAAQYTGASYSILRDQVGYDYWGQGTLVTVSS	4.32
